For experiment [1], the target named is T1, human Claudin 18 splice variant 2 (hCLDN18.2) (human, UniProt P56856-2 1-261).
T1 construct: whole, on cells; Tetra-spanning membrane protein; tested only on cells
T1 sequence (looked up): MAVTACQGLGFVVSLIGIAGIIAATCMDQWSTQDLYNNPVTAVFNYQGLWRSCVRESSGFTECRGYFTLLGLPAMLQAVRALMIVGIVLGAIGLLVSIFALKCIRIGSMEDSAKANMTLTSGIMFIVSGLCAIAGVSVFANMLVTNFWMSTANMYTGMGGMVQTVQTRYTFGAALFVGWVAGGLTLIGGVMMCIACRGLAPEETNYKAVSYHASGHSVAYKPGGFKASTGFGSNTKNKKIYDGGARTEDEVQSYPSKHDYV
The experiment in a line: flow cytometry on Expi293 cells stably expressing hCLDN18.2, APC anti-human IgG detection, gMFI. How it is done: Cells stably expressing hCLDN18.2 were spun down at 1500 rpm at room temperature for 5 minutes and resuspended in 1×PBS/1% BSA (washing buffer), antibodies at a 1:3 series dilution ranging from 100 nM to 24 pM were added, cells were incubated at RT with shaking for 1 hour. […] Three additional washes were performed to get rid of unbound antibodies, treated samples were run on an LSRII flow cytometer (BD Biosciences) and signal intensity was determined using the geometric MFI of APC using Flow Jo software (BD Biosciences). Curve fitting and EC₅₀ values were obtained using GraphPad Prism 6 software.
Background: In flow cytometry, cells or beads pass a laser one at a time.

The target in experiment [2] is T1, human Claudin 18 splice variant 2 …. Put plainly: cell-based or functional assay.
Experiment [3] deals with human SIRPα on monocyte-derived macrophages (human, UniProt P78324 31-504). Put plainly: cell-based or functional assay.
In experiment [4] the target is T2, His6 tagged soluble monomeric extracellular domain (ECD) of hSIRPα v1 (human, UniProt P78324 31-373).
T2 construct: extracellular domain; Made by transient transfection in Expi293 cells; used as monomeric analyte in Biacore; also called huSIRPαv1; huSIRPα-v1; not shown: His6 tag
Put plainly: SPR (Biacore T200), antibody captured by anti-human Fc on CM5 chip, monomeric antigen as analyte, 1:1 model. How it is done: (§1) The experiment is described in Example 8. Antibodies were captured to the CM5 chip surface on which goat anti-human polyclonal antibody (Fc specific) was immobilized. Monomeric huSIRPα-v1 and huSIRPα-v2 were used as analytes and were injected for a 2-minute association period followed by a 5-minute dissociation period. Each concentration was run in duplicates. For human SIRPα v1 the incremental concentrations used are 3.13, 6.25, 12.5, 25, 50, 100, […]; For human SIRPα v2 the incremental concentrations used are 0.78, 1.56, 3.13, 6.25, 12.5, or 25 nM. At the end of each analyte injection, the chip was either regenerated with 10 mM glycine-HC1, pH 1.5 (Panels A-D) for multi-cycle kinetics or not regenerated (Panels E-H) for single-cycle kinetics. Data were evaluated using the Biacore T200 Evaluation Software, version 3.2. Data was double referenced then fit with a 1:1 binding model. Panels A and E indicate the binding of anti-hSIRPα×anti-hCLDN18.2 bispecific antibody to hSIRPα v1, panels B and F indicate the binding of anti-hSIRPα #24 IgG antibody to hSIRPα v1, panels C and G indicate the binding of anti-hSIRPα×anti-hCLDN18.2 bispecific antibody to human SIRPα v2, panels D and H indicate the binding of anti-hSIRPα #24 IgG antibody to human SIRPα v2. The x-axis represents the time (seconds), the y-axis represents the RU (Response Units).
(§2) The His6 tagged soluble monomeric extracellular domain (ECD) of hSIRPα v1 and v2 were made by transient transfection in Expi293 cells. Kinetic analysis was performed using surface plasmon resonance (T200, Cytiva) to compare the binding of the anti-hSIRPα×anti-hCLDN18.2 bispecific antibody (SEQ ID NOs:70 and 74) and the parental anti-hSIRPα #24 IgG antibody (SEQ ID NOs:68 and 74) to antigens hSIRPα v1 and hSIRPα v2 (FIG. 15). Either antibody was captured to the CM5 chip surface (Cytiva) by the immobilized goat-anti-human Fc polyclonal antibody, monomeric antigen hSIRPα v1 or v2 was sequentially injected at 6 different concentrations: huSIRPα v1 at 3.13, 6.25, 12.5, 25, 50, 100 nM while hSIPRα v2 at […] with regeneration by 10 mM Glycine-HCl pH1.5 (FIG. 15, panels A-D) for multi-cycle kinetics or without regeneration (FIG. 15, panels E-H) for single-cycle kinetics.
On the technique in general: In SPR one partner is held on a chip, and binding of the other changes the refractive index at the surface.

Experiment [5] deals with T3, His6 tagged soluble monomeric extracellular domain (ECD) of hSIRPα v2 (human).
T3 construct: extracellular domain; Made by transient transfection in Expi293 cells; used as monomeric analyte in Biacore; also called huSIRPαv2; huSIRPα-v2
Described as above. As for the experimental part: as §1, §2

The term EC50 denotes the concentration needed to bring the measured effect to its halfway point. A high value points to a less potent agent. The Kd is a measure of binding affinity in units of concentration. As usually defined, the koff is the first-order rate constant of dissociation. The kon is the rate constant with which the complex forms. Lower therefore signals slow association.

T2 sequence (P78324 31-373): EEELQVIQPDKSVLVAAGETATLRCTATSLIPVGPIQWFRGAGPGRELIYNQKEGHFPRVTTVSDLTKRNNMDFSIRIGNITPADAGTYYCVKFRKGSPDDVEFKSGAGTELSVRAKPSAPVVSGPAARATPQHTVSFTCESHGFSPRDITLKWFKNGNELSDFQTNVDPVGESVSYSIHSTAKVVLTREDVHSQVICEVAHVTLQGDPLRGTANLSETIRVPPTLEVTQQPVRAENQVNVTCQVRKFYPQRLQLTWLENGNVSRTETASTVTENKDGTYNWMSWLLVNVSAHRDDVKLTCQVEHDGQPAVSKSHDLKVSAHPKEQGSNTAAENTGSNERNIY
Chain of human SIRPα on monocyte-derived macrophages (P78324 31-504): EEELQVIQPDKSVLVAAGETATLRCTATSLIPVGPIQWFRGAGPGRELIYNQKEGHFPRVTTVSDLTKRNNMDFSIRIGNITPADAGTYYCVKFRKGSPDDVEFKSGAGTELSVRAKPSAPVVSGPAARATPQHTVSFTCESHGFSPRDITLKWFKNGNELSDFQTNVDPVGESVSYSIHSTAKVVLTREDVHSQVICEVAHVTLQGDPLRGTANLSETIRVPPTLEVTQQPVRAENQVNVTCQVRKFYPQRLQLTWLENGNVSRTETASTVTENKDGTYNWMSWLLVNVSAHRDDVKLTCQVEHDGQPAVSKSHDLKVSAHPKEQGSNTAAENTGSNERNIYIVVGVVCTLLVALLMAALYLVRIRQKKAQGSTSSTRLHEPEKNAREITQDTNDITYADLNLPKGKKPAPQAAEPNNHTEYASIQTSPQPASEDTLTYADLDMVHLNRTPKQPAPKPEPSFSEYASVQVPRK

B1: parental anti-hCLDN18.2 59F9E1 IgG1 antibody (antibody, V domains shown)
VH: QVQLVQSGAEVKKPGSSVKVSCKASGYTLTGYWIEWLRQRPGQGLEWMGEILLGSGSIKYNVKFKDRVTITADESTSTAYMELSSLRSEDTAVYYCARKGLRGNSFDYWGQGTLVTVSS
VL: DIVMTQSPSSLTVSLGEKATISCKSSQSLLNSGNQKSYLTWYQQKPGQPPKRLIYWASTRESGVPDRFSGSGSGTDFTLTISSLQAEDLAVYYCQNDYYYPFTFGQGTKVEIKR
notes: Humanized IgG1 with two Fab arms; also called aCLDN18.2; anti-hCLDN18.2 clone 59F9E1 IgG1 (WT)
As to B1, the EC50 in experiment [1] was found to be 4.52 nM.

B2: anti-hSIRPα×anti-hCLDN18.2 bispecific antibody (bispecific antibody, human IgG1, kappa)
heavy 1: EVQLVESGGGLVKPGGSLRLSCAASGFTFSSYVMSWVRQTPGKGLEWVATISSGGTYTYYPDSVKGRFTLSRDNAKNSLYLQMNSLRAEDTAVYYCASQLTGSEFDYWGQGTTVTVSSASTKGPSVFPLAPSSKSTSGGTAALGCLVKDYFPEPVTVSWNSGALTSGVHTFPAVLQSSGLYSLSSVVTVPSSSLGTQTYICNVNHKPSNTKVDKKVEPKSCDKTHTCPPCPAPELLGGPSVFLFPPKPKDTLMISRTPEVTCVVVDVSHEDPEVKFNWYVDGVEVHNAKTKPREEQYNSTYRVVSVLTVLHQDWLNGKEYKCKVSNKALPAPIEKTISKAKGQPREPQVYTLPPCREEMTKNQVKLTCLVKGFYPSDIAVEWESNGQPENPYKTTPPVLDKDGSFFLYSKLTVDKSRWQQGNVFSCSVMHEALHNHYTQKSLSLSPGK
light 1: DIVLTQSPASLAVSLGERATISCRASESVDLYGTSFMHWYQQKPGQPPKLLIYRASNLESGVPDRFSGSGSRTDFTLTINPLQAEDVATYYCHQSSDELPWTFGGGTKVEIKRTVAAPSVFIFPPSDEQLKSGTASVVCLLNNFYPREAKVQWKVDNALQSGNSQESVTEQDSKDSTYSLSSTLTLSKADYEKHKVYACEVTHQGLSSPVTKSFNRGEC
heavy 2: QVQLVQSGAEVKKPGSSVKVSCKASGYTLTGYWIEWLRQRPGQGLEWMGEILLGSGSIKYNVKFKDRVTITADESTSTAYMELSSLRSEDTAVYYCARKGLRGNSFDYWGQGTLVTVSSASTKGPSVFPLAPSSKSTSGGTAALGCLVDDYFPEPVTVSWNSGALTSGVHTCPACLQSSGLYSLSSVVTVPSSSLGTQTYICNVNHKPSNTKVDKKVEPKSGDKTHTCPPCPAPELLGGPSVFLFPPKPKDTLMISRTPEVTCVVVDVSHEDPEVKFNWYVDGVEVHNAKTKPREEQYNSTYRVVSVLTVLHQDWLNGKEYKCKVSNKALPAPIEKTISKAKGQPREPQVCTLPPSREEMTKNQVDLTCLVDGFYPSDIAVEWESNGQPENDYGTTPPVLDDDGSFFLYSKLTVDKSRWQQGNVFSCSVMHEALHNHYTQKSLSLSPGK
light 2: DIVMTQSPSSLTVSLGEKATISCKSSQSLLNAGNQKSYLTWYQQKPGQPPKRLIYWASTRESGVPDRFSGSGSGTDFTLTISSLQAEDLAVYYCQNDYYYPFTFGQGTKVEIKRTVAAPSVFIFPPSDEQLKSGTAKVVCLLNNFYPREAKVQWKVDNALQSGNSCECVTEQDSKDSTYSLSSTLTLSKADYEKHKVYACEVTHQGLSSPVTKSFNRGES
notes: Four-chain heterodimeric IgG, one Fab arm for each target; made in ExpiCHO cells and purified on protein A; also called anti-hCLDN18.2×hSIRPα bispecific antibody; anti-hSIRPα×hCLDN18.2
On to B2, for which the “EC50, ADCP killing of PaTu 8988s cells by monocyte-derived macrophages” value in experiment [2] and in experiment [3] was 0.172 nM throughout. Also, in experiment [1], the 50% effective concentration (EC50) was 16.9 nM. Also, the Kd in experiment [4] was determined as 23.2 nM; in experiment [5], 0.88 nM. For the same molecule, the koff in experiment [4] was determined as 0.00732 s⁻¹; in experiment [5], 0.00104 s⁻¹. Moreover, the values for the kon in experiment [4] and in experiment [5] were 329000 M⁻¹ s⁻¹ and 1.18e+06 M⁻¹ s⁻¹, respectively.

B3: parental anti-hSIRPα #24 IgG antibody (antibody, V domains shown)
VH: EVQLVESGGGLVKPGGSLRLSCAASGFTFSSYVMSWVRQTPGKGLEWVATISSGGTYTYYPDSVKGRFTLSRDNAKNSLYLQMNSLRAEDTAVYYCASQLTGSEFDYWGQGTTVTVSS
VL: DIVLTQSPASLAVSLGERATISCRASESVDLYGTSFMHWYQQKPGQPPKLLIYRASNLESGVPDRFSGSGSRTDFTLTINPLQAEDVATYYCHQSSDELPWTFGGGTKVEIKR
notes: Bivalent parental IgG; also called anti-SIRPα mAb; anti-hSIRPα clone #24 IgG (WT)
In experiment [4], B3 gave a Kd of 22.3 nM, an off-rate constant (koff) of 0.0077 s⁻¹ and a kon of 346000 M⁻¹ s⁻¹. For the same molecule, in experiment [5], the Kd was 0.908 nM, the koff was determined as 0.00109 s⁻¹ and the kon came to 1.21e+06 M⁻¹ s⁻¹.

The record behind these values is US20230116446A1 (QILU PUGET SOUND BIOTHERAPEUTICS, published 2023).
